The text below walks through data of paper PMC6599547 (Journal of molecular biology, 2019).

This test concerns the target T1, N-terminally tagged soluble SARAF luminal domain, SP-XFP-SARAFL-R (SARAF(Δ165-339) with signal peptide and … (human, UniProt Q96BY9 31-164)).
T1 sequence: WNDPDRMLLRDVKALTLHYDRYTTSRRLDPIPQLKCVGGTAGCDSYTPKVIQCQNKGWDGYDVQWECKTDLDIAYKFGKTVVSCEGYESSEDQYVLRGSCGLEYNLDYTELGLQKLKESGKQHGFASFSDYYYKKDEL
Nature of the test: FRET or BRET. (BRET reads energy transfer from a luciferase to a nearby fluorophore.)

B1: C-terminally tagged soluble SARAF luminal domain, SP-SARAFL-XFP-R (domain or fragment, human)
chain: WNDPDRMLLRDVKALTLHYDRYTTSRRLDPIPQLKCVGGTAGCDSYTPKVIQCQNKGWDGYDVQWECKTDLDIAYKFGKTVVSCEGYESSEDQYVLRGSCGLEYNLDYTELGLQKLKESGKQHGFASFSDYYYKTGRPACKIPNDLKQKVMNHKDEL
For B1, the “FRET signal, fold over the pair with both fluorophores at the N-terminus” value is around 3 fold.
